Experimental data published in PMC8452626.

Target: Rabbit skeletal actin (unoxidized) (rabbit) (UniProt P68135)
Assay: other fluorescence titration; profilin stock titrated into 0.15 uM actin; quenching of the intrinsic tryptophan fluorescence of actin, excitation 295 nm, emission 330 nm; 5 mM PIPES pH 7, 0.2 mM CaCl2, 0.2 mM ATP, 0.5 mM DTT (G-buffer conditions)

Kd: 500 nM
Substance: human profilin-1 (from UniProt P07737 1-140) (natural protein; other documents disagree on this pair)
